In patent US7354588B1, “Functional derivatives of ICAM-1 with altered ability to bind LFA-1 or HRV” (Dana Farber Cancer Institute, priority 1987, dated 2008):

What was measured:
R6.5 mAb = assay: Indirect immunofluorescence flow cytofluorometry: mAb R6.5 binding to COS cells expressing ICAM-1 mutants (SLFI, % CL203); assay type: cell-based; conditions: SLFI normalized to CL203 SLFI of the mutant
Procedure: (§1) For HRV binding studies, COS cells were reseeded in a 24 well plate. One day later, the confluent monolayer was washed twice with 1 ml of RPMI 1640/10 mM MgCl2/25 mM Hepes pH 7.3 (rhinovirus-14 buffer). Transfected COS cells were labeled with 51Cr for binding to LFA-1 coated plastic as previously described (Staunton, D. E., et al., Nature 339:61-64 (1989). Immunoprecipitation and indirect immunofluorescence was performed using ICAM-1 MAb RR1/1 (Rothlein, R., et al., J. Immunol. 137:1270-1274 (1986)), R6.5 (Rothlein, R., et al., J. Immunol. 141:1665-1669 (1988)), LB-1 (Clark, E. A., et al., Hum. Immunol. 16:100-113 (1986)) and CL203 (Maio, M., J. Immunol. 143:181-188 (1989), all of which references are incorporated herein by reference).
(§2) Binding of RR1, R6.5, and LB-2 mAb was normalized to binding of CL203 mAb using Specific Linear Fluorescence Intensity (SLFI): % CL203=(mAbSLFI)×100)/CL203mABSLFI
(§3) In Table 25, the notation for the mutations uses the one-letter code for the wild-type sequence followed by a slash and the one-letter code for the corresponding mutant sequence. The position of the first amino acid within the sequence is indicated. Wild type residues precede the slash followed by the residues they were substituted for in the mutant. COS cells expressing ICAM-1 mutants were tested for adherence to LFA-1 coated plastic and for binding 35S met-labeled HRV14. LFA-1 and HRV14 binding is normalized for percent of cells expressing mutant ICAM-1 and for binding of wild type expressing cells. Binding is presented as mean and standard error (SE) for multiple experiments (n). Effects of two-fold or greater were reproducible in LFA-1, HRV and mAb binding assays and thus considered significant (bold and underlined). The specific linear fluorescence intensity (SLFI) of CL203 for each mutant is normalized to that of wild type CL203 SLFI (% WT) as discussed above. The SLFI of RR1/1, R6.5 and LB-2 SLFI is normalized to the CL203 SLFI of the mutant (% CL203) as described above.

RR1/1 mAb = assay: Indirect immunofluorescence flow cytofluorometry: mAb RR1/1 binding to COS cells expressing ICAM-1 mutants (SLFI, % CL203); assay type: cell-based; conditions: SLFI normalized to CL203 SLFI of the mutant
Procedure: as §1, §2, §3

LFA-1 = target: T1, LFA-1 (Homo sapiens, UniProt P05107+P20701); assay: Adherence of COS cells expressing ICAM-1 or ICAM-1 mutants to plastic-bound purified LFA-1; assay type: cell-based; conditions: for LFA-1 Binding %: COS cells expressing ICAM-1 mutant adhering to LFA-1 coated plastic, normalized for percent of cells expressing mutant and for wild type binding, mean; for decrease in LFA-1 binding: COS cells expressing the mutant, relative to wild type
T1 construct: endogenous in cells

CL203 mAb = assay: Indirect immunofluorescence flow cytofluorometry: mAb CL203 binding to COS cells expressing ICAM-1 mutants (SLFI, % WT); assay type: cell-based; conditions: SLFI of CL203 for mutant normalized to wild type CL203 SLFI; level of expression
Procedure: as §1, §2, §3

LB-2 mAb = assay: Indirect immunofluorescence flow cytofluorometry: mAb LB-2 binding to COS cells expressing ICAM-1 mutants (SLFI, % CL203); assay type: cell-based; conditions: SLFI normalized to CL203 SLFI of the mutant
Procedure: as §1, §2, §3

HRV14 = assay: Binding of [^35S]-Met labeled HRV14 to COS cells expressing ICAM-1 mutants; assay type: cell-based, human rhinovirus 14; conditions: for HRV Binding %: 35S met-labeled HRV14 binding to COS cells expressing ICAM-1 mutant, normalized for percent of cells expressing mutant and for wild type binding, mean; for decrease in HRV14 binding: COS cells expressing the mutant, relative to wild type

T1 sequence (P20701 26-1170): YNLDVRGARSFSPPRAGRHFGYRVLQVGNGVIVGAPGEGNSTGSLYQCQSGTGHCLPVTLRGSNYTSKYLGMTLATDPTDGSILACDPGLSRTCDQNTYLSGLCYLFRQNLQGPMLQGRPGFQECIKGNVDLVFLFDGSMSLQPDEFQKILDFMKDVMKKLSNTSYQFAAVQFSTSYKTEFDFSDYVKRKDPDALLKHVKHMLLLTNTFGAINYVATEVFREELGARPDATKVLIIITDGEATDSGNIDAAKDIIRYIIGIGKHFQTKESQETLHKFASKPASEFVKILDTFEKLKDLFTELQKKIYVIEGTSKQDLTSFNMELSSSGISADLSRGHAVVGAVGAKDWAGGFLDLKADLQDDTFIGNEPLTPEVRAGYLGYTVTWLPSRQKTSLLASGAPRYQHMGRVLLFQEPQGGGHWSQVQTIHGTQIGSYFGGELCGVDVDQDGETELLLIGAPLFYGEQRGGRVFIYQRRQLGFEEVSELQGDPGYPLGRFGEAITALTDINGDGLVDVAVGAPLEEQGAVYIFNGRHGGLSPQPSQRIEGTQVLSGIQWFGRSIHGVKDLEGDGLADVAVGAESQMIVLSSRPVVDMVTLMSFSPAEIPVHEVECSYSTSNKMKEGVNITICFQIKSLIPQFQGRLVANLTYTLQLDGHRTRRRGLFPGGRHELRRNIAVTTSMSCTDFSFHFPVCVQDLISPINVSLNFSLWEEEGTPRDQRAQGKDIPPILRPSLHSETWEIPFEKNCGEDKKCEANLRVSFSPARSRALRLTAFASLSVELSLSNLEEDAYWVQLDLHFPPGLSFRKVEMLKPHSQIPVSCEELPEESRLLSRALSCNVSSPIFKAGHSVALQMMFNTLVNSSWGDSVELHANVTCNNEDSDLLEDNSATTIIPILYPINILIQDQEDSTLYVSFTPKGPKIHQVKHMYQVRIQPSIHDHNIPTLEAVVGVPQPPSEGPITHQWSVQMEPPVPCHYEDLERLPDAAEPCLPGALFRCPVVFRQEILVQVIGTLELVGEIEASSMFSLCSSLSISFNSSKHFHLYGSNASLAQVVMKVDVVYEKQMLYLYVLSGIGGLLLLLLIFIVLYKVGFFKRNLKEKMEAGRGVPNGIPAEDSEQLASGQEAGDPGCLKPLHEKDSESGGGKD
T1 sequence (P05107 23-769): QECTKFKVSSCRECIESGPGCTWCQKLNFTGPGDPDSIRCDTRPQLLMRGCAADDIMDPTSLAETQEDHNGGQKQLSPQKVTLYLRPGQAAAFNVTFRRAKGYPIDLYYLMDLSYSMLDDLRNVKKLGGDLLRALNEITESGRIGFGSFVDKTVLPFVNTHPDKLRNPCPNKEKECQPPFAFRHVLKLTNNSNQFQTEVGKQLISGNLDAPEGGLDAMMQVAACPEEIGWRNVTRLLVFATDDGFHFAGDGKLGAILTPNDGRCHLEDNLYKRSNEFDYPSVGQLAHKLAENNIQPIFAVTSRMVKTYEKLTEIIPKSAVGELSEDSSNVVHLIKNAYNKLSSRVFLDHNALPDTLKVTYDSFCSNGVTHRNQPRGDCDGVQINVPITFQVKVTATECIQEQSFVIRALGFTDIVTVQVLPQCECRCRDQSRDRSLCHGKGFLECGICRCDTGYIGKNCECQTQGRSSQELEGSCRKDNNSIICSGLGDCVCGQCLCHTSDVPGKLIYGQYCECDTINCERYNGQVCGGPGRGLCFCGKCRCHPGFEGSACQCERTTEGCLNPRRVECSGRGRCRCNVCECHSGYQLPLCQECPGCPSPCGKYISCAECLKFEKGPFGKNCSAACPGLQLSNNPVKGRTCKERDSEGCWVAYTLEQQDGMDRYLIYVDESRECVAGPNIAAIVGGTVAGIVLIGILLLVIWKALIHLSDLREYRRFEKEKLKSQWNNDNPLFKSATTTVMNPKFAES

| Molecule | SLFI (% CL203) R6.5 (R6.5 mAb) [% CL203] | SLFI (% CL203) RR/1 (RR1/1 mAb) [% CL203] | LFA-1 Binding % (LFA-1) [%] | decrease in LFA-1 binding (LFA-1) | Cl203 % WT (SLFI) (CL203 mAb) [% WT] | SLFI (% CL203) LB-2 (LB-2 mAb) [% CL203] | HRV Binding % (HRV14) [%] | decrease in HRV14 binding (HRV14) |
| --- | --- | --- | --- | --- | --- | --- | --- | --- |
| Q73/T: ICAM-1 substitution mutant, Q73 to T (protein, UniProt P05362 28-532, looked up, variant Q73T) Intercellular adhesion …: QTSVSPSKVILPRGGSVLVTCSTSCDQPKLLGIETPLPKKELLLPGNNRKVYELSNVQEDSQPMCYSNCPDGTSTAKTFLTVYWTPERVELAPLPSWQPVGKNLTLRCQVEGGAPRANLTVVLLRGEKELKREPAVGEPAEVTTTVLVRRDHHGANFSCRTELDLRPQGLELFENTSAPYQLQTFVLPATPPQLVSPRVLEVDTQGTVVCSLDGLFPVSEAQVHLALGDQRLNPTVTYGNDSFSAKASVSVTAEDEGTQRLTCAVILGNQSQETLQTVTIYSFPAPNVILTKPEVSEGTEVTVKCEAHPRAKVTLNGVPAQPLGPRAQLLLKATPEDNGRSFSCSATLEVAGQLIHKNQTRELRVLYGPRLDERDCPGNWTWPENSQQTPMCQAWGNPLPELKCLKDGTFPLPIGESVTVTRDLEGTYLCRARSTQGEVTRKVTVNVLSPRYEIVIITVVAAAVIMGTAGLSTYLYNRQRKIKKYRLQQAQKGTPMKPNTQATPP | 86 | 71 | 40 | two-fold | 218 | 114 | 133 |  |
| N118/Q: ICAM-1 domain 2 substitution mutant affecting an N-linked glycosylation site (protein, UniProt P05362 28-532, looked up, variant N118Q) Intercellular adhesion …: QTSVSPSKVILPRGGSVLVTCSTSCDQPKLLGIETPLPKKELLLPGNNRKVYELSNVQEDSQPMCYSNCPDGQSTAKTFLTVYWTPERVELAPLPSWQPVGKNLTLRCQVEGGAPRAQLTVVLLRGEKELKREPAVGEPAEVTTTVLVRRDHHGANFSCRTELDLRPQGLELFENTSAPYQLQTFVLPATPPQLVSPRVLEVDTQGTVVCSLDGLFPVSEAQVHLALGDQRLNPTVTYGNDSFSAKASVSVTAEDEGTQRLTCAVILGNQSQETLQTVTIYSFPAPNVILTKPEVSEGTEVTVKCEAHPRAKVTLNGVPAQPLGPRAQLLLKATPEDNGRSFSCSATLEVAGQLIHKNQTRELRVLYGPRLDERDCPGNWTWPENSQQTPMCQAWGNPLPELKCLKDGTFPLPIGESVTVTRDLEGTYLCRARSTQGEVTRKVTVNVLSPRYEIVIITVVAAAVIMGTAGLSTYLYNRQRKIKKYRLQQAQKGTPMKPNTQATPP | 85 | 93 | 54 | approximately two-fold | 139 | 93 | 110 |  |
| K39KE/ERQ: ICAM-1 substitution mutant, K39KE to ERQ (protein, UniProt P05362 28-532, looked up, variant K39E K40R E41Q) Intercellular adhesion …: QTSVSPSKVILPRGGSVLVTCSTSCDQPKLLGIETPLPERQLLLPGNNRKVYELSNVQEDSQPMCYSNCPDGQSTAKTFLTVYWTPERVELAPLPSWQPVGKNLTLRCQVEGGAPRANLTVVLLRGEKELKREPAVGEPAEVTTTVLVRRDHHGANFSCRTELDLRPQGLELFENTSAPYQLQTFVLPATPPQLVSPRVLEVDTQGTVVCSLDGLFPVSEAQVHLALGDQRLNPTVTYGNDSFSAKASVSVTAEDEGTQRLTCAVILGNQSQETLQTVTIYSFPAPNVILTKPEVSEGTEVTVKCEAHPRAKVTLNGVPAQPLGPRAQLLLKATPEDNGRSFSCSATLEVAGQLIHKNQTRELRVLYGPRLDERDCPGNWTWPENSQQTPMCQAWGNPLPELKCLKDGTFPLPIGESVTVTRDLEGTYLCRARSTQGEVTRKVTVNVLSPRYEIVIITVVAAAVIMGTAGLSTYLYNRQRKIKKYRLQQAQKGTPMKPNTQATPP | 93 | 47 | 99 |  | 84 | 87 | 61 | two-fold |
| Q1T/KA: ICAM-1 substitution mutant, Q1T to KA (protein, UniProt P05362 28-532, looked up, variant Q1K T2A) Intercellular adhesion …: KASVSPSKVILPRGGSVLVTCSTSCDQPKLLGIETPLPKKELLLPGNNRKVYELSNVQEDSQPMCYSNCPDGQSTAKTFLTVYWTPERVELAPLPSWQPVGKNLTLRCQVEGGAPRANLTVVLLRGEKELKREPAVGEPAEVTTTVLVRRDHHGANFSCRTELDLRPQGLELFENTSAPYQLQTFVLPATPPQLVSPRVLEVDTQGTVVCSLDGLFPVSEAQVHLALGDQRLNPTVTYGNDSFSAKASVSVTAEDEGTQRLTCAVILGNQSQETLQTVTIYSFPAPNVILTKPEVSEGTEVTVKCEAHPRAKVTLNGVPAQPLGPRAQLLLKATPEDNGRSFSCSATLEVAGQLIHKNQTRELRVLYGPRLDERDCPGNWTWPENSQQTPMCQAWGNPLPELKCLKDGTFPLPIGESVTVTRDLEGTYLCRARSTQGEVTRKVTVNVLSPRYEIVIITVVAAAVIMGTAGLSTYLYNRQRKIKKYRLQQAQKGTPMKPNTQATPP | 115 | 94 | 119 |  | 230 | 113 | 11 | ten-fold |
| N156/E: ICAM-1 domain 2 substitution mutant affecting an N-linked glycosylation site (protein, UniProt P05362 28-532, looked up, variant N156E) Intercellular adhesion …: QTSVSPSKVILPRGGSVLVTCSTSCDQPKLLGIETPLPKKELLLPGNNRKVYELSNVQEDSQPMCYSNCPDGQSTAKTFLTVYWTPERVELAPLPSWQPVGKNLTLRCQVEGGAPRANLTVVLLRGEKELKREPAVGEPAEVTTTVLVRRDHHGAEFSCRTELDLRPQGLELFENTSAPYQLQTFVLPATPPQLVSPRVLEVDTQGTVVCSLDGLFPVSEAQVHLALGDQRLNPTVTYGNDSFSAKASVSVTAEDEGTQRLTCAVILGNQSQETLQTVTIYSFPAPNVILTKPEVSEGTEVTVKCEAHPRAKVTLNGVPAQPLGPRAQLLLKATPEDNGRSFSCSATLEVAGQLIHKNQTRELRVLYGPRLDERDCPGNWTWPENSQQTPMCQAWGNPLPELKCLKDGTFPLPIGESVTVTRDLEGTYLCRARSTQGEVTRKVTVNVLSPRYEIVIITVVAAAVIMGTAGLSTYLYNRQRKIKKYRLQQAQKGTPMKPNTQATPP | 95 | 84 | 60 | approximately two-fold | 182 | 95 | 107 |  |
| S177/G: ICAM-1 domain 2 substitution mutant affecting an N-linked glycosylation site (protein, UniProt P05362 28-532, looked up, variant S177G) Intercellular adhesion …: QTSVSPSKVILPRGGSVLVTCSTSCDQPKLLGIETPLPKKELLLPGNNRKVYELSNVQEDSQPMCYSNCPDGQSTAKTFLTVYWTPERVELAPLPSWQPVGKNLTLRCQVEGGAPRANLTVVLLRGEKELKREPAVGEPAEVTTTVLVRRDHHGANFSCRTELDLRPQGLELFENTGAPYQLQTFVLPATPPQLVSPRVLEVDTQGTVVCSLDGLFPVSEAQVHLALGDQRLNPTVTYGNDSFSAKASVSVTAEDEGTQRLTCAVILGNQSQETLQTVTIYSFPAPNVILTKPEVSEGTEVTVKCEAHPRAKVTLNGVPAQPLGPRAQLLLKATPEDNGRSFSCSATLEVAGQLIHKNQTRELRVLYGPRLDERDCPGNWTWPENSQQTPMCQAWGNPLPELKCLKDGTFPLPIGESVTVTRDLEGTYLCRARSTQGEVTRKVTVNVLSPRYEIVIITVVAAAVIMGTAGLSTYLYNRQRKIKKYRLQQAQKGTPMKPNTQATPP | 118 | 136 | 59 | approximately two-fold | 87 | 90 | 66 |  |
